{"source": "the supplement of paper PMC10567573", "parents": {"B1": {"name": "WEE1 (parent)", "chain": "INPFTPDSLLLHSSGQCRRRKRTY"}}}
{"variants_of": "B1", "experiment": "protein stability index of a GFP-peptide fusion (GPS, HEK-293T) (PSI 1-6); higher = more stable", "conditions": "c terminus: a fixed tail appended"}
{"variant": "INPFTPDSILLHSSGQCRRRKRTY", "note": "[L9I]", "protein stability index": 3.25}
{"variant": "INPFTPDSALLHSSGQCRRRKRTY", "note": "[L9A]", "protein stability index": 3.61}
{"variant": "INPFTPDSGLLHSSGQCRRRKRTY", "note": "[L9G]", "protein stability index": 4.28}
{"variant": "INPFTPDSKLLHSSGQCRRRKRTY", "note": "[L9K]", "protein stability index": 3.42}
{"variant": "INPFTPDSFLLHSSGQCRRRKRTY", "note": "[L9F]", "protein stability index": 2.94}
{"variant": "INPFTPDSHLLHSSGQCRRRKRTY", "note": "[L9H]", "protein stability index": 4.06}
{"variant": "INPFTPDSDLLHSSGQCRRRKRTY", "note": "[L9D]", "protein stability index": 4.2}
{"variant": "INPFTPDSMLLHSSGQCRRRKRTY", "note": "[L9M]", "protein stability index": 3.35}
{"variant": "INPFTPDSCLLHSSGQCRRRKRTY", "note": "[L9C]", "protein stability index": 3.35}
{"variant": "INPFTPDSELLHSSGQCRRRKRTY", "note": "[L9E]", "protein stability index": 3.96}
{"variant": "INPFCPDSLLLHSSGQCRRRKRTY", "note": "[T5C]", "protein stability index": 2.87}
{"variant": "INPFMPDSLLLHSSGQCRRRKRTY", "note": "[T5M]", "protein stability index": 2.89}
{"variant": "INPFQPDSLLLHSSGQCRRRKRTY", "note": "[T5Q]", "protein stability index": 3.78}
{"variant": "INPFDPDSLLLHSSGQCRRRKRTY", "note": "[T5D]", "protein stability index": 4.01}
{"variant": "INPFIPDSLLLHSSGQCRRRKRTY", "note": "[T5I]", "protein stability index": 2.48}
{"variant": "INPFKPDSLLLHSSGQCRRRKRTY", "note": "[T5K]", "protein stability index": 3.45}
{"variant": "INPFVPDSLLLHSSGQCRRRKRTY", "note": "[T5V]", "protein stability index": 3.71}
{"variant": "INPFSPDSLLLHSSGQCRRRKRTY", "note": "[T5S]", "protein stability index": 3.23}
{"variant": "INPFWPDSLLLHSSGQCRRRKRTY", "note": "[T5W]", "protein stability index": 2.51}
{"variant": "INPFRPDSLLLHSSGQCRRRKRTY", "note": "[T5R]", "protein stability index": 3.41}
{"variant": "INPFFPDSLLLHSSGQCRRRKRTY", "note": "[T5F]", "protein stability index": 2.67}
{"variant": "INPFHPDSLLLHSSGQCRRRKRTY", "note": "[T5H]", "protein stability index": 3.33}
{"variant": "INPFEPDSLLLHSSGQCRRRKRTY", "note": "[T5E]", "protein stability index": 3.98}
{"variant": "INPFPPDSLLLHSSGQCRRRKRTY", "note": "[T5P]", "protein stability index": 2.95}
{"variant": "INPFAPDSLLLHSSGQCRRRKRTY", "note": "[T5A]", "protein stability index": 3.93}
{"variant": "INPFYPDSLLLHSSGQCRRRKRTY", "note": "[T5Y]", "protein stability index": 2.93}
{"variant": "INPFNPDSLLLHSSGQCRRRKRTY", "note": "[T5N]", "protein stability index": 3.24}
{"variant": "INPFLPDSLLLHSSGQCRRRKRTY", "note": "[T5L]", "protein stability index": 3.04}
{"variant": "INPFGPDSLLLHSSGQCRRRKRTY", "note": "[T5G]", "protein stability index": 3.76}
{"variant": "INPFTPRSLLLHSSGQCRRRKRTY", "note": "[D7R]", "protein stability index": 3.39}
{"variant": "INPFTPNSLLLHSSGQCRRRKRTY", "note": "[D7N]", "protein stability index": 2.41}
{"variant": "INPFTPVSLLLHSSGQCRRRKRTY", "note": "[D7V]", "protein stability index": 2.63}
{"variant": "INPFTPASLLLHSSGQCRRRKRTY", "note": "[D7A]", "protein stability index": 3.13}
{"variant": "INPFTPGSLLLHSSGQCRRRKRTY", "note": "[D7G]", "protein stability index": 2.24}
{"variant": "INPFTPWSLLLHSSGQCRRRKRTY", "note": "[D7W]", "protein stability index": 3.99}
{"variant": "INPFTPSSLLLHSSGQCRRRKRTY", "note": "[D7S]", "protein stability index": 3.14}
{"variant": "INPFTPYSLLLHSSGQCRRRKRTY", "note": "[D7Y]", "protein stability index": 3.27}
{"variant": "INPFTPPSLLLHSSGQCRRRKRTY", "note": "[D7P]", "protein stability index": 3.09}
{"variant": "INPFTPLSLLLHSSGQCRRRKRTY", "note": "[D7L]", "protein stability index": 2.73}
{"variant": "INPFTPISLLLHSSGQCRRRKRTY", "note": "[D7I]", "protein stability index": 2.55}
{"variant": "INPFTPMSLLLHSSGQCRRRKRTY", "note": "[D7M]", "protein stability index": 3.12}
{"variant": "INPFTPQSLLLHSSGQCRRRKRTY", "note": "[D7Q]", "protein stability index": 3.52}
{"variant": "INPFTPHSLLLHSSGQCRRRKRTY", "note": "[D7H]", "protein stability index": 2.69}
{"variant": "INPFTPCSLLLHSSGQCRRRKRTY", "note": "[D7C]", "protein stability index": 2.46}
{"variant": "INPFTPESLLLHSSGQCRRRKRTY", "note": "[D7E]", "protein stability index": 3.6}
{"variant": "INPFTPKSLLLHSSGQCRRRKRTY", "note": "[D7K]", "protein stability index": 3.31}
{"variant": "INPFTPTSLLLHSSGQCRRRKRTY", "note": "[D7T]", "protein stability index": 3.51}
{"variant": "INPFTPFSLLLHSSGQCRRRKRTY", "note": "[D7F]", "protein stability index": 2.12}
{"variant": "INPRTPDSLLLHSSGQCRRRKRTY", "note": "[F4R]", "protein stability index": 3.77}
{"variant": "INPWTPDSLLLHSSGQCRRRKRTY", "note": "[F4W]", "protein stability index": 3.87}
{"variant": "INPSTPDSLLLHSSGQCRRRKRTY", "note": "[F4S]", "protein stability index": 4.18}
{"variant": "INPVTPDSLLLHSSGQCRRRKRTY", "note": "[F4V]", "protein stability index": 4.08}
{"variant": "INPYTPDSLLLHSSGQCRRRKRTY", "note": "[F4Y]", "protein stability index": 3.31}
{"variant": "INPPTPDSLLLHSSGQCRRRKRTY", "note": "[F4P]", "protein stability index": 4.58}
{"variant": "INPTTPDSLLLHSSGQCRRRKRTY", "note": "[F4T]", "protein stability index": 4.38}
{"variant": "INPQTPDSLLLHSSGQCRRRKRTY", "note": "[F4Q]", "protein stability index": 4.22}
{"variant": "INPFTYDSLLLHSSGQCRRRKRTY", "note": "[P6Y]", "protein stability index": 2.56}
{"variant": "INPFTDDSLLLHSSGQCRRRKRTY", "note": "[P6D]", "protein stability index": 3.87}
{"variant": "INPFTCDSLLLHSSGQCRRRKRTY", "note": "[P6C]", "protein stability index": 3.04}
{"variant": "INPFTMDSLLLHSSGQCRRRKRTY", "note": "[P6M]", "protein stability index": 2.52}
{"variant": "INPFTKDSLLLHSSGQCRRRKRTY", "note": "[P6K]", "protein stability index": 3.26}
{"variant": "INPFTSDSLLLHSSGQCRRRKRTY", "note": "[P6S]", "protein stability index": 3.61}
{"variant": "INPFTTDSLLLHSSGQCRRRKRTY", "note": "[P6T]", "protein stability index": 3.2}
{"variant": "INPFTADSLLLHSSGQCRRRKRTY", "note": "[P6A]", "protein stability index": 4}
{"variant": "INPFTVDSLLLHSSGQCRRRKRTY", "note": "[P6V]", "protein stability index": 2.07}
{"variant": "INPFTWDSLLLHSSGQCRRRKRTY", "note": "[P6W]", "protein stability index": 2.21}
{"variant": "INPFTFDSLLLHSSGQCRRRKRTY", "note": "[P6F]", "protein stability index": 2.64}
{"variant": "INPFTNDSLLLHSSGQCRRRKRTY", "note": "[P6N]", "protein stability index": 4.07}
{"variant": "INPFTLDSLLLHSSGQCRRRKRTY", "note": "[P6L]", "protein stability index": 2.06}
{"variant": "INPFTGDSLLLHSSGQCRRRKRTY", "note": "[P6G]", "protein stability index": 3.58}
{"variant": "INPFTQDSLLLHSSGQCRRRKRTY", "note": "[P6Q]", "protein stability index": 3.09}
{"variant": "INPFTIDSLLLHSSGQCRRRKRTY", "note": "[P6I]", "protein stability index": 2.79}
{"variant": "INPFTEDSLLLHSSGQCRRRKRTY", "note": "[P6E]", "protein stability index": 3.71}
{"variant": "INPFTRDSLLLHSSGQCRRRKRTY", "note": "[P6R]", "protein stability index": 3.02}
{"variant": "INPFTHDSLLLHSSGQCRRRKRTY", "note": "[P6H]", "protein stability index": 3.18}
{"variant": "INPFTPDGLLLHSSGQCRRRKRTY", "note": "[S8G]", "protein stability index": 3.44}
{"variant": "INPFTPDNLLLHSSGQCRRRKRTY", "note": "[S8N]", "protein stability index": 3.75}
{"variant": "INPFTPDILLLHSSGQCRRRKRTY", "note": "[S8I]", "protein stability index": 2.6}
{"variant": "INPFTPDKLLLHSSGQCRRRKRTY", "note": "[S8K]", "protein stability index": 3.35}
{"variant": "INPFTPDMLLLHSSGQCRRRKRTY", "note": "[S8M]", "protein stability index": 2.75}
{"variant": "INPFTPDVLLLHSSGQCRRRKRTY", "note": "[S8V]", "protein stability index": 3.25}
{"variant": "INPFTPDELLLHSSGQCRRRKRTY", "note": "[S8E]", "protein stability index": 4.08}
{"variant": "INPFTPDWLLLHSSGQCRRRKRTY", "note": "[S8W]", "protein stability index": 3.5}
{"variant": "INPFTPDYLLLHSSGQCRRRKRTY", "note": "[S8Y]", "protein stability index": 2.65}
{"variant": "INPFTPDHLLLHSSGQCRRRKRTY", "note": "[S8H]", "protein stability index": 3.83}
{"variant": "INPFTPDALLLHSSGQCRRRKRTY", "note": "[S8A]", "protein stability index": 3.42}
{"variant": "INPFTPDRLLLHSSGQCRRRKRTY", "note": "[S8R]", "protein stability index": 2.71}
{"variant": "INPFTPDPLLLHSSGQCRRRKRTY", "note": "[S8P]", "protein stability index": 2.77}
{"variant": "INPFTPDLLLLHSSGQCRRRKRTY", "note": "[S8L]", "protein stability index": 2.82}
{"variant": "INPFTPDFLLLHSSGQCRRRKRTY", "note": "[S8F]", "protein stability index": 2.5}
{"variant": "INPFTPDTLLLHSSGQCRRRKRTY", "note": "[S8T]", "protein stability index": 2.81}
{"variant": "INPFTPDDLLLHSSGQCRRRKRTY", "note": "[S8D]", "protein stability index": 4}
{"variant": "INPFTPDQLLLHSSGQCRRRKRTY", "note": "[S8Q]", "protein stability index": 3.73}
{"variant": "INPFTPDCLLLHSSGQCRRRKRTY", "note": "[S8C]", "protein stability index": 2.73}
